These results are taken from publication PMC12416549 (2024).

First the molecules themselves.
T1: TNFR1 (Homo sapiens, UniProt P19438)
T1 chain: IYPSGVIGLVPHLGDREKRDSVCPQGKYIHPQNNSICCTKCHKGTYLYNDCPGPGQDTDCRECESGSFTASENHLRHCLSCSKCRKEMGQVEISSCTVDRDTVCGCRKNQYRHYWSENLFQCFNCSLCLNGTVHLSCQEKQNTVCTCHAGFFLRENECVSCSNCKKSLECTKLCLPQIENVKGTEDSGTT

B1: E37Y (designed binder)
chain: SMEEEVEKAAKEYEKKKKEAIEKHLEKLKAKDKEAAYRFLKELEEAAKEYAKDEAKTMSEEEAKRRAKKYKEKVLLSELSEEEQKEIKEAEEKLVRTILKYVEEAAK
B2: A47D (designed binder)
chain: B1 chain with Y37E, A47D
B3: A67W (designed binder)
chain: B1 chain with Y37E, A67W
B4: A36Y (designed binder)
chain: B1 chain with A36Y, Y37E
B5: E22S (designed binder)
chain: B1 chain with E22S, Y37E
B6: L94C (designed binder)
chain: B1 chain with Y37E, L94C
B7: L43P (designed binder)
chain: B1 chain with Y37E, L43P
B8: E34T (designed binder)
chain: B1 chain with E34T, Y37E
B9: K85E (designed binder)
chain: B1 chain with Y37E, K85E
B10: T97W (designed binder)
chain: B1 chain with Y37E, T97W
B11: E12V (designed binder)
chain: B1 chain with E12V, Y37E
B12: K48V (designed binder)
chain: B1 chain with Y37E, K48V
B13: K107R (designed binder)
chain: B1 chain with Y37E, K107R
B14: E60F (designed binder)
chain: B1 chain with Y37E, E60F
B15: L94N (designed binder)
chain: B1 chain with Y37E, L94N
B16: R38H (designed binder)
chain: B1 chain with Y37E, R38H
B17: K52Q (designed binder)
chain: B1 chain with Y37E, K52Q
B18: L76H (designed binder)
chain: B1 chain with Y37E, L76H
B19: M58S (designed binder)
chain: B1 chain with Y37E, M58S
B20: A9D (designed binder)
chain: B1 chain with A9D, Y37E
B21: V102K (designed binder)
chain: B1 chain with Y37E, V102K
B22: E22R (designed binder)
chain: B1 chain with E22R, Y37E
B23: L40V (designed binder)
chain: B1 chain with Y37E, L40V
B24: V74I (designed binder)
chain: B1 chain with Y37E, V74I
B25: K93N (designed binder)
chain: B1 chain with Y37E, K93N
B26: K56R (designed binder)
chain: B1 chain with Y37E, K56R
B27: K17N (designed binder)
chain: B1 chain with K17N, Y37E
B28: V6E (designed binder)
chain: B1 chain with V6E, Y37E
B29: E86C (designed binder)
chain: B1 chain with Y37E, E86C
B30: K56W (designed binder)
chain: B1 chain with Y37E, K56W
B31: K73S (designed binder)
chain: B1 chain with Y37E, K73S
B32: A67I (designed binder)
chain: B1 chain with Y37E, A67I
B33: K69R (designed binder)
chain: B1 chain with Y37E, K69R
B34: E26C (designed binder)
chain: B1 chain with E26C, Y37E
B35: K15G (designed binder)
chain: B1 chain with K15G, Y37E
B36: L99Q (designed binder)
chain: B1 chain with Y37E, L99Q
B37: K56Q (designed binder)
chain: B1 chain with Y37E, K56Q
B38: R65I (designed binder)
chain: B1 chain with Y37E, R65I
B39: M58F (designed binder)
chain: B1 chain with Y37E, M58F
B40: I21M (designed binder)
chain: B1 chain with I21M, Y37E

Changes are numbered by the printed parent chain. Names may count otherwise.

This assay deals with T1, TNFR1. The assay can be described thus: yeast display SC50.
In the case of B1, the “apparent Kd (screen)” value was 0.49 nM.
The result for B2 reads 1.16 nM.
The result for B3 reads 10.4 nM; that for B4, 0.539 nM; that for B5, 0.539 nM.
The figure for B6 is 2.73 nM.
Take B7: the “apparent Kd (screen)” value is 12.5 nM.
The figure for B8 is 0.446 nM; for B9 it is 0.446 nM.
For the molecule B10, the “apparent Kd (screen)” value is 2.48 nM.
In the case of B11, the “apparent Kd (screen)” value turned out to be 0.956 nM.
The figure for B12 is 0.653 nM; for B13 it is 1.54 nM.
As for B14, the “apparent Kd (screen)” value was 0.956 nM.
The figure for B15 is 20.2 nM; for B16 it is 1.4 nM; for B17 it is 0.718 nM.
The figure for B18 is 1.69 nM; for B19 it is 4.39 nM; for B20 it is 1.16 nM.
The result for B21 reads 1.27 nM.
As for B22, the “apparent Kd (screen)” value came out at 0.446 nM.
The figure for B23 is 0.49 nM; for B24 it is 0.446 nM.
The figure for B25 is 1.27 nM; for B26 it is 1.54 nM; for B27 it is 2.73 nM.
The figure for B28 is 11.4 nM; for B29 it is 0.653 nM.
With B30, the “apparent Kd (screen)” value was found to be 11.4 nM.
The result for B31 reads 9.41 nM; that for B32, 7.07 nM.
The figure for B33 is 1.27 nM; for B34 it is 0.49 nM.
With B35, the “apparent Kd (screen)” value amounted to 0.653 nM.
The figure for B36 is 11.4 nM; for B37 it is 2.73 nM.
Turning to B38, the “apparent Kd (screen)” value is 1.4 nM.
As for B39, the “apparent Kd (screen)” value is 11.4 nM.
For B40, the “apparent Kd (screen)” value stood at 0.539 nM.
